Here are results for 94 variants from the supplement of paper PMC10567573.

B1: FCHO1 (parent)
chain: FTSSPSPFSSSSPENVEDSGLDSP
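Further: lentivirally expressed fusions sorted by FACS into six bins by GFP to DsRed ratio, PSI derived from sequencing read proportions per bin multiplied by bin number.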

Variants of B1 are the subject of the series. In words: protein stability index of a GFP-peptide fusion (GPS, HEK-293T) (PSI 1-6); higher = more stable. Conditions: c terminus: a fixed tail appended.
Consider FTSSPSPKSSSSPENVEDSGLDSP [F8K], for which the protein stability index is 5.34. Take FTSSPSPYSSSSPENVEDSGLDSP [F8Y]: the protein stability index was 2.04. Then FTSSPSPVSSSSPENVEDSGLDSP [F8V], with 4.45; and FTSSPSPLSSSSPENVEDSGLDSP [F8L], with 3.74; and FTSSPSPGSSSSPENVEDSGLDSP [F8G], with 4.72. Turning to FTSSPSPDSSSSPENVEDSGLDSP [F8D], the protein stability index came to 5.5. Then FTSSPSPMSSSSPENVEDSGLDSP [F8M], with 4.53; and FTSSPSPCSSSSPENVEDSGLDSP [F8C], with 3.77. In the case of FTSSPSPHSSSSPENVEDSGLDSP [F8H], the protein stability index was 5.05. On to FTSSPSPTSSSSPENVEDSGLDSP [F8T], for which the protein stability index amounted to 5.39. FTSSPSPQSSSSPENVEDSGLDSP [F8Q]: the protein stability index was found to be 4.95. Then FTSSPSPNSSSSPENVEDSGLDSP [F8N], with 4.9; and FTSSPSPPSSSSPENVEDSGLDSP [F8P], with 4.95; and FTSSPSPASSSSPENVEDSGLDSP [F8A], with 5.11. As for FTSSPSPISSSSPENVEDSGLDSP [F8I], the figure is 4.48. Then FTSSPSPRSSSSPENVEDSGLDSP [F8R], with 4.29; and FTSSPSPSSSSSPENVEDSGLDSP [F8S], with 5.08; and FTSSPSPESSSSPENVEDSGLDSP [F8E], with 5.2. For the variant FTSSPSPFPSSSPENVEDSGLDSP [S9P], the protein stability index was determined as 3.79. As for FTSSPSPFASSSPENVEDSGLDSP [S9A], the figure is 2.09; as for FTSSPSPFNSSSPENVEDSGLDSP [S9N], 2.08; as for FTSSPSPFMSSSPENVEDSGLDSP [S9M], 2.02. For FTSSPSPFLSSSPENVEDSGLDSP [S9L], the protein stability index was 2.17. As for FTSSPSPFVSSSPENVEDSGLDSP [S9V], the figure is 1.73; as for FTSSPSPFWSSSPENVEDSGLDSP [S9W], 2.71; as for FTSSPSPFHSSSPENVEDSGLDSP [S9H], 1.84. Regarding FTSSPSPFCSSSPENVEDSGLDSP [S9C], the protein stability index worked out at 2.22. As for FTSSPSPFFSSSPENVEDSGLDSP [S9F], the figure is 2.34; as for FTSSPSPFDSSSPENVEDSGLDSP [S9D], 2.67; as for FTSSPSPFKSSSPENVEDSGLDSP [S9K], 1.89. Then FTSSPSPFGSSSPENVEDSGLDSP [S9G], with 2.2; and FTSSPSPFISSSPENVEDSGLDSP [S9I], with 2.91; and FTSSPSPFYSSSPENVEDSGLDSP [S9Y], with 2.45. As for FTSSPSPFESSSPENVEDSGLDSP [S9E], the figure is 2.83; as for FTSSPSPFQSSSPENVEDSGLDSP [S9Q], 2.06. As for FTSSPSPFRSSSPENVEDSGLDSP [S9R], the protein stability index is 1.76. Then FTSSPSPFTSSSPENVEDSGLDSP [S9T], with 2.29; and FTSSPSHFSSSSPENVEDSGLDSP [P7H], with 2.12. Take FTSSPSNFSSSSPENVEDSGLDSP [P7N]: the protein stability index was determined as 1.96.

Turning to FTSSPSTFSSSSPENVEDSGLDSP [P7T], the protein stability index was found to be 2.38.

Turning to FTSSPSYFSSSSPENVEDSGLDSP [P7Y], the protein stability index is 2.49. Then FTSSPSCFSSSSPENVEDSGLDSP [P7C], with 1.56; and FTSSPSVFSSSSPENVEDSGLDSP [P7V], with 2.24; and FTSSPSEFSSSSPENVEDSGLDSP [P7E], with 2.79. Then FTSSPSIFSSSSPENVEDSGLDSP [P7I], with 1.74; and FTSSPSKFSSSSPENVEDSGLDSP [P7K], with 2.28; and FTSSPSQFSSSSPENVEDSGLDSP [P7Q], with 1.86. As for FTSSPSSFSSSSPENVEDSGLDSP [P7S], the figure is 2.25; as for FTSSPSMFSSSSPENVEDSGLDSP [P7M], 2.1. For FTSSPSFFSSSSPENVEDSGLDSP [P7F], the protein stability index was determined as 1.93. For the variant FTSSPSGFSSSSPENVEDSGLDSP [P7G], the protein stability index worked out at 2.89. Then FTSSPSLFSSSSPENVEDSGLDSP [P7L], with 1.91. Then FTSSPSAFSSSSPENVEDSGLDSP [P7A], with 2.25; and FTSSPSRFSSSSPENVEDSGLDSP [P7R], with 2.09; and FTSSPSDFSSSSPENVEDSGLDSP [P7D], with 3.19.

For the variant FTSSPSPFSSSSFENVEDSGLDSP [P13F], the protein stability index stood at 2.49. As for FTSSPSPFSSSSTENVEDSGLDSP [P13T], the figure is 1.77.

On to FTSSPSPFSSSSWENVEDSGLDSP [P13W], for which the protein stability index was 1.83. As for FTSSPSPFSSSSYENVEDSGLDSP [P13Y], the figure is 2.04.

As for FTSSPSPFSSSSCENVEDSGLDSP [P13C], the protein stability index worked out at 1.53. FTSSPSPFSSSSKENVEDSGLDSP [P13K]: the protein stability index is 2.14. As to FTSSPSPFSSSSVENVEDSGLDSP [P13V], the protein stability index is 2.28. On to FTSSPSPFSSSSIENVEDSGLDSP [P13I], for which the protein stability index came to 2.05.

FTSSPSPFSSSSDENVEDSGLDSP [P13D]: the protein stability index was determined as 2.1.

With FTSSPSPFSSSSQENVEDSGLDSP [P13Q], the protein stability index is 2.39. Regarding FTSSPSPFSSSSHENVEDSGLDSP [P13H], the protein stability index turned out to be 2.29. Consider FTSSPSPFSSSSRENVEDSGLDSP [P13R], for which the protein stability index was determined as 1.85. Then FTSSPSPFSSSSSENVEDSGLDSP [P13S], with 2.13. Then FTSSPSPFSSSSGENVEDSGLDSP [P13G], with 1.93; and FTSSPSPFSSSSNENVEDSGLDSP [P13N], with 1.66. As for FTSSPSPFSSSSAENVEDSGLDSP [P13A], the protein stability index was 1.77. As for FTSSPSPFSSSSMENVEDSGLDSP [P13M], the figure is 1.58; as for FTSSPSPFSSSSEENVEDSGLDSP [P13E], 2.44; as for FTSSPSPFSSSSLENVEDSGLDSP [P13L], 2.21.

On to FTSSPSPFSSSWPENVEDSGLDSP [S12W], for which the protein stability index was found to be 1.98. Take FTSSPSPFSSSTPENVEDSGLDSP [S12T]: the protein stability index was 2.01. For FTSSPSPFSSSFPENVEDSGLDSP [S12F], the protein stability index came to 2.65. Then FTSSPSPFSSSCPENVEDSGLDSP [S12C], with 2.46; and FTSSPSPFSSSMPENVEDSGLDSP [S12M], with 1.99. As for FTSSPSPFSSSAPENVEDSGLDSP [S12A], the figure is 1.74. For FTSSPSPFSSSLPENVEDSGLDSP [S12L], the protein stability index amounted to 2.27. As to FTSSPSPFSSSDPENVEDSGLDSP [S12D], the protein stability index was determined as 2.53. As for FTSSPSPFSSSKPENVEDSGLDSP [S12K], the figure is 1.56; as for FTSSPSPFSSSIPENVEDSGLDSP [S12I], 2.12. FTSSPSPFSSSPPENVEDSGLDSP [S12P]: the protein stability index was 2.25. Take FTSSPSPFSSSGPENVEDSGLDSP [S12G]: the protein stability index came to 2.36. Then FTSSPSPFSSSHPENVEDSGLDSP [S12H], with 3.01; and FTSSPSPFSSSEPENVEDSGLDSP [S12E], with 1.7.

As for FTSSPSPFSSSRPENVEDSGLDSP [S12R], the protein stability index was 1.56.

FTSSPSPFSSSYPENVEDSGLDSP [S12Y]: the protein stability index stood at 1.75. For the variant FTSSPSPFSSSNPENVEDSGLDSP [S12N], the protein stability index is 2.37. With FTSSPSPFSSSVPENVEDSGLDSP [S12V], the protein stability index turned out to be 2.56. As for FTSSPSPFSSSQPENVEDSGLDSP [S12Q], the figure is 2.26; as for FTSSYSPFSSSSPENVEDSGLDSP [P5Y], 1.9.
